Experimental data taken from paper PMC3616705 (Nucleic Acids Research, 2013).

B1: Cex1pΔC-SER (residues 9-564, E535A/K536A/E537A) with N-terminal His tag, as used in the pull-down (domain or fragment, Saccharomyces cerevisiae, UniProt Q12453 9-564, looked up)
chain: SISNFQFPYTIEETAITETALWQCFDGTRKADSLPVTVFKAKRSPENESLILNAVHKSKILKIPGLCTVLETFDSDPQSTFIVTERVVPFPWDNLGSLSQNKFGVELGISQLLATLGFLKNFVLGTLSKDSVFINIKGEWVLFGLELCSSKEGLSAFEFASRARSYYNIIGSQLPCEDPNTIDSMGLGLLIKSLMAPSCLPKDWIVNVNMISDGKITIENFRKRLENTETWRSNPLINFYQELRELHIKDPQGKLVVMSNLENLYLESREIFRNLTPGMIENFIIPELCEIIKLLMTQSISSAASPIGMNFNASHKLVPFLAIVLDLTSETNTFPVGFNDLITQSFKLPDRQVRFLLLIYLPKLIGPLSKSEISSRIYPHFIQGLTDSDATLRLQTLKTIPCIVSCLTERQLNNELLRFLAKTQVDSDVEIRTWTVIIISKISTILSTSVGNRSNILATAFTKSLKDPQVKPRLAALYGLEKSIELFDVNTIANKILTVIAPGLLDKSPIVRGRAKILFEEYLEKLAAAAQLIQTNDSTADSEDVKDIDFENYGCD
B2: Cex1pΔC-SER (residues 9-564, E535A/K536A/E537A), His tag removed (domain or fragment, Saccharomyces cerevisiae, UniProt Q12453 9-564, looked up)
chain: SISNFQFPYTIEETAITETALWQCFDGTRKADSLPVTVFKAKRSPENESLILNAVHKSKILKIPGLCTVLETFDSDPQSTFIVTERVVPFPWDNLGSLSQNKFGVELGISQLLATLGFLKNFVLGTLSKDSVFINIKGEWVLFGLELCSSKEGLSAFEFASRARSYYNIIGSQLPCEDPNTIDSMGLGLLIKSLMAPSCLPKDWIVNVNMISDGKITIENFRKRLENTETWRSNPLINFYQELRELHIKDPQGKLVVMSNLENLYLESREIFRNLTPGMIENFIIPELCEIIKLLMTQSISSAASPIGMNFNASHKLVPFLAIVLDLTSETNTFPVGFNDLITQSFKLPDRQVRFLLLIYLPKLIGPLSKSEISSRIYPHFIQGLTDSDATLRLQTLKTIPCIVSCLTERQLNNELLRFLAKTQVDSDVEIRTWTVIIISKISTILSTSVGNRSNILATAFTKSLKDPQVKPRLAALYGLEKSIELFDVNTIANKILTVIAPGLLDKSPIVRGRAKILFEEYLEKLAAAAQLIQTNDSTADSEDVKDIDFENYGCD
B3: Cex1p9-358 (N-terminal kinase-like domain of Cex1p), N-terminal His tag (domain or fragment, Saccharomyces cerevisiae, UniProt Q12453 9-358, looked up)
chain: SISNFQFPYTIEETAITETALWQCFDGTRKADSLPVTVFKAKRSPENESLILNAVHKSKILKIPGLCTVLETFDSDPQSTFIVTERVVPFPWDNLGSLSQNKFGVELGISQLLATLGFLKNFVLGTLSKDSVFINIKGEWVLFGLELCSSKEGLSAFEFASRARSYYNIIGSQLPCEDPNTIDSMGLGLLIKSLMAPSCLPKDWIVNVNMISDGKITIENFRKRLENTETWRSNPLINFYQELRELHIKDPQGKLVVMSNLENLYLESREIFRNLTPGMIENFIIPELCEIIKLLMTQSISSAASPIGMNFNASHKLVPFLAIVLDLTSETNTFPVGFNDLITQSFKLPD
B4: wild-type, full-length Cex1p (cytoplasmic export protein), N-terminal His tag (natural protein, Saccharomyces cerevisiae, UniProt Q12453 1-761, looked up)
chain: MNFSSIFKSISNFQFPYTIEETAITETALWQCFDGTRKADSLPVTVFKAKRSPENESLILNAVHKSKILKIPGLCTVLETFDSDPQSTFIVTERVVPFPWDNLGSLSQNKFGVELGISQLLATLGFLKNFVLGTLSKDSVFINIKGEWVLFGLELCSSKEGLSAFEFASRARSYYNIIGSQLPCEDPNTIDSMGLGLLIKSLMAPSCLPKDWIVNVNMISDGKITIENFRKRLENTETWRSNPLINFYQELRELHIKDPQGKLVVMSNLENLYLESREIFRNLTPGMIENFIIPELCEIIKLLMTQSISSAASPIGMNFNASHKLVPFLAIVLDLTSETNTFPVGFNDLITQSFKLPDRQVRFLLLIYLPKLIGPLSKSEISSRIYPHFIQGLTDSDATLRLQTLKTIPCIVSCLTERQLNNELLRFLAKTQVDSDVEIRTWTVIIISKISTILSTSVGNRSNILATAFTKSLKDPQVKPRLAALYGLEKSIELFDVNTIANKILTVIAPGLLDKSPIVRGRAKILFEEYLEKLEKEAQLIQTNDSTADSEDVKDIDFENYGCDEEDMNKEDNLLAAQFLNNLRLNSPSATTPSNITESEIDSAQDGSGWDDLSDTDGFITNGTTESFDETTNPVTTASTPKLFGKPIKINKSWNDELNDDGWIQDESGPSKVPQKHTRPQNSTLAKSIAPSSRLSIKKKKTTILAPRNIASNSTVTTKSSLSNKTARSKPISSIRGSVTKKGNVDGWDDDGDSDSWDTNW

What was measured:
[1] = target: Los1p·Gsp1p export complex (GST-Los1p together with GST-Gsp1p on glutathione resin) (yeast, UniProt P33418 1-1100; P32835 1-219); experiment: pull-down
[2] = target: the molecule itself; experiment: AUC

| Binder | binding result [1] | stoichiometry N [2] |
| --- | --- | --- |
| B1 | binds |  |
| B2 |  | 2 |
| B3 | binds | 2 |
| B4 | binds | 2 |
